# Measurements: publication PMC4591687
# Biological target: PDI C56A-FLAG (human) (UniProt P07237)
# Assay: co-IP
# Chain of UniProt P07237 (P07237 18-508 C56A): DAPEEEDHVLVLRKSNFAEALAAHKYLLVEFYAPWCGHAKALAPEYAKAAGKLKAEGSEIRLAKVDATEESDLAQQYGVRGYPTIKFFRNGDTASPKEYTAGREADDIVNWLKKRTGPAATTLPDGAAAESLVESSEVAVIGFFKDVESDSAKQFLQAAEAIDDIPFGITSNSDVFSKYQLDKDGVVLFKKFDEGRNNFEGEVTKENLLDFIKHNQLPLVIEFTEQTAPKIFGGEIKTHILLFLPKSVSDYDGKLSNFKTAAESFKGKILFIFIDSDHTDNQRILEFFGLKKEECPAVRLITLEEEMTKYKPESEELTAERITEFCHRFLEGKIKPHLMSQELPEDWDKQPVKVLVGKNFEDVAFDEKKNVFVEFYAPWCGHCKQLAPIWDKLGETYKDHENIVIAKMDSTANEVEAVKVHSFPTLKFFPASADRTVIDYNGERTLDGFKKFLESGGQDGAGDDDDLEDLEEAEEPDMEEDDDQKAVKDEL
substance,measurement,value
Myc-epitope-tagged human C(A7)Y Akita mutant proinsulin (natural protein),stoichiometry N (proinsulin per PDI),1
